Measurements from publication PMC3348883.

Target: Raf-1 (UniProt P04049)
Assay: FLAG IP, GFP-Raf-1 blot
Details: reference: FLAG-MST2 wild type; sites Y81

For “MST2 (from UniProt Q13188) FLAG-MST2 Y81F”, the “binding against the reference” value was “stronger”.
